# B1: Ac TrxR-S (Acanthamoeba castellanii str. Neff) (protein)
# chain: MESKVHRMVIVGSGPAGHTAAIYAARANLEPVMYEGWMAGGVASGGQLTTTTDVENFPGFPEGVGGIDLTDNMRKQSERFGTVIIPKTITKADLSSRPFKLWVEGEEEGEPAAQAHSLIIATGATARRLAVPGEETFWQKGVSACAVCDGALPLFRNKPLAVVGGGDSACEEASWLSKFGSKVYLIHRRDELRASKIMAQRVLSNPKIEMVWNSAVEEIYGEKLVTGLKIKNVSTGDITDLPVSGLFWAIGHVPNTQFLNGQVETDAEGYIKTTPGSTVTSVEGVFAAGDVQDKRYRQAITAAGTGCMAALDAEHWLSAHL
# notes: full-length from cDNA, 321 aa, C-terminal 6xHis, pET-17b, E. coli BL21-AI, Ni-NTA
# B2: Ac GR (Acanthamoeba castellanii str. Neff) (protein)
# chain: MESAKSTYDFDLFVLGAGSGGVRASRISAKAGARVAIAEESRVGGTCVIRGCIPKKLLVYASHFSGDFEDSRNFGWSVDVKGFDWKKLIDNKDKEIDRLNGIYKNLLAGSGVKLIEGRATLVDAHTVKVGDATYTAENILVAVGSWPWVPTIPGIEHAITSNEALELQELPKHAIIVGAGYIACEFATIFSGCGAKVTQIFRKPYVLTGFDNDVQLAVMDEGKKQGINFMPSTQVTAIEKTDAGYVCQLDNGQTVTGDVVMYATGRVPNSANLGLENAGVKIDQQGAIVVDEWSRTSVPSIYAVGDITNRINLTPVALAEGHALADTLYNNLPRTADHTNVPSAVFTSPPVSCVGYTETQARQVYGEIDVYVSKFTPLRHTLSKRDEKTFMKLIVDRKTDRVVGAHMVGADAPEIIQGVAIAVKCGATKKQFDSTVGLHPSAAEEFVTMRTKRE
# notes: full-length from cDNA, 454 aa, C-terminal 6xHis, expressed in Giardia lamblia WB C6, Ni-NTA; eluate also contained G. lamblia proteins
# B3: MsrA (Acanthamoeba castellanii str. Neff) (protein)
# chain: MTETATFGAGCFWGVEKFFRKEFGSALASTEVGYAGGDKSSPTYRQVCDGDTGHAEVVKLEFKKDAVDYASLVEFFFRIHDASTVDRQGNDVGTQYRSVIFYHTPEQKKVAEEVKDKVQKEHYPRTPIVTQIVPVGQYWSAEDYHQLYLEKNPSGYCNHRLRW
# notes: full-length from cDNA, 163 aa, C-terminal 6xHis, pET-17b, E. coli BL21-AI, Ni-NTA
# Tests used:
# Assay type in all cases: biochemical, Acanthamoeba castellanii
# [1] = substrate: NC(=O)C1=CN([C@@H]2O[C@H](COP(=O)(O)OP(=O)(O)OC[C@H]3O[C@@H](n4cnc5c(N)ncnc54)[C@H](OP(=O)(O)O)[C@@H]3O)[C@@H](O)[C@H]2O)C=CC1; test: Trx-1-dependent DTNB reduction, A412; conditions: 10 µg/ml Trx-1, 1 mM DTNB, 1 µg/ml (31 nM) TrxR-S, 100 mM potassium phosphate pH 6.8, 21-23 °C
# Text: Trx-1-dependent DTNB reduction, A412 on Ac TrxR-S
# [2] = substrate: NC(=O)C1=CN([C@@H]2O[C@H](COP(=O)(O)OP(=O)(O)OC[C@H]3O[C@@H](n4cnc5c(N)ncnc54)[C@H](OP(=O)(O)O)[C@@H]3O)[C@@H](O)[C@H]2O)C=CC1; test: GSH-dependent DTNB reduction, A412; conditions: 1 mM GSSG, 11 nM GR, 100 mM Tris pH 7.5
# Text: GSH-dependent DTNB reduction, A412 on Ac GR
# [3] = substrate: C[S+]([O-])CCC(N)C(=O)O; test: coupled NADPH oxidation via TrxR-S and Trx-1, A340; conditions: 610 nM MsrA, 1.9 µM Trx-1, Ac TrxR-S, 0.2 mM NADPH
# Text: coupled NADPH oxidation via TrxR-S and Trx-1, A340 on MsrA
protein,measurement,setting,value
B1,Km,[1],4 µM
same,Vmax,[1],2.96 µmol/min/mg
same,kcat,[1],1.7 s⁻¹
B2,Km,[2],9 µM
B3,Km,[3],2590 µM
same,Vmax,[3],500 nmol/min/mg
same,kcat,[3],0.155 s⁻¹
same,kcat/Km,[3],59 M⁻¹ s⁻¹
